Laboratory results as given in paper PMC3590139, “Isocitrate Dehydrogenase from Streptococcus mutans: Biochemical Properties and Evaluation of a Putative Phosphorylation Site at Ser102” (PLoS ONE, 2013).

B1: SmIDH (Streptococcus mutans UA159) (protein)
chain: MAEKVSFEEGKLQVPDKPVIPYIEGDGVGQDIWKNAQIVFDKAIAKVYGGHKQVIWREVLAGKKAYNETGNWLPNETLEIIKTHLLAIKGPLETPVGGGIRSLNVALRQELDLFACVRPVRYFKGVPSPLKHPEKTAITIFRENTEDIYAGIEWNAGTAEVQKVINFLQDDMQVKKIRFPKSSSIGIKPISIEGSQRLIRAAIEYALANNLTKVTLVHKGNIQKFTEGGFRKWGYELAKREYAAELASGQLVVDDIIADNFLQQILLKPERFDVVALTNLNGDYASDALAAQVGGIGISPGANINYQTGHAIFEATHGTAPDIAGQDLANPSSVLLSGCMLFDYIGWSKVSDLIMKAVEKAIANGQVTIDFAKELGVEALTTRQFSEVLLTYL
B2: NAD+-dependent isocitrate dehydrogenase of Streptococcus mutans (enzyme, UniProt Q59940 1-393, looked up)
chain: MAEKVSFEEGKLQVPDKPVIPYIEGDGVGQDIWKNAQIVFDKAIAKVYGGHKQVIWREVLAGKKAYNETGNWLPNETLEIIKTHLLAIKGPLETPVGGGIRSLNVALRQELDLFACVRPVRYFKGVPSPLKHPEKTAITIFRENTEDIYAGIEWNAGTAEVQKVINFLQDDMQVKKIRFPKSSSIGIKPISIEGSQRLIRAAIEYALANNLTKVTLVHKGNIQKFTEGGFRKWGYELAKREYAAELASGQLVVDDIIADNFLQQILLKPERFDVVALTNLNGDYASDALAAQVGGIGISPGANINYQTGHAIFEATHGTAPDIAGQDLANPSSVLLSGCMLFDYIGWSKVSDLIMKAVEKAIANGQVTIDFAKELGVEALTTRQFSEVLLTYL
notes: 399 residues per subunit with the tag; The C-terminal position of the His6 tag is read from the reverse primer R-Sm^icd (CTA + six GTG codons on the antisense strand); also called SmIDH; S. mutans IDH; not shown: His6, C-terminal, kept

Key:
[1] = substrate: O=C(O)CC(C(=O)O)C(O)C(=O)O; test: purified protein; settings: saturating NAD+, 35 mM Tris-HCl pH 7.5, […] MnCl2, 37 °C
[2] = substrate: NC(=O)c1ccc[n+]([C@@H]2O[C@H](COP(=O)(O)OP(=O)(O)OC[C@H]3O[C@@H](n4cnc5c(N)ncnc54)[C@H](O)[C@@H]3O)[C@@H](O)[C@H]2O)c1; test: purified protein; settings: saturating DL-isocitrate, 35 mM Tris-HCl pH 7.5, […] MnCl2, 37 °C
[3] = target: the molecule itself; test: SEC; HiLoad 10/300 Superdex 200, 0.05 M potassium phosphate pH 7.0, 0.15 M NaCl, 0.01% NaN3, flow 0.5 ml/min; calibrated with ovalbumin, conalbumin, aldolase, ferritin, thyroglobulin; native mass estimated as 70 kDa against a 43 kDa subunit

Protein | Km [1] [µM] | kcat [1] [s⁻¹] | kcat/Km [1] [M⁻¹ s⁻¹] | Km [2] [µM] | kcat [2] [s⁻¹] | kcat/Km [2] [M⁻¹ s⁻¹] | stoichiometry N [3]
B1 | 75 | 124 | 1.65e+06 | 154 | 56 | 360000 | 
B2 |  |  |  |  |  |  | 2
